Experimental data from publication PMC9814837, “Design of a gold clustering site in an engineered apo-ferritin cage” (Communications Chemistry, 2022).

Target: the molecule itself
Assay: crystal structure; hanging-drop vapor diffusion, 0.5-1 M (NH4)2SO4 and 10-20 mM CdSO4, 20 °C; data at 100 K; space group F432, cage rebuilt by symmetry; apo protein and composites after reaction with 10-400 equiv. Au(I) precursor

B1: apo-R168H/L169C-rHLFr (recombinant L-chain ferritin from horse liver, R168H/L169C mutant) (natural protein, UniProt P02791 1-175, looked up)
chain: MSSQIRQNYSTEVEAAVNRLVNLYLRASYTYLSLGFYFDRDDVALEGVCHFFRELAEEKREGAERLLKMQNQRGGRALFQDLQKPSQDEWGTTLDAMKAAIVLEKSLNQALLDLHALGSAQADPHLCDFLESHFLDEEVKLIKKMGDHLTNIQRLVGSQAGLGEYLFEHCTLKHD
notes: ferritin L-chain, horse liver, recombinant (rHLFr); last residue named is Asp174; Crystallised apo and after reaction with 10-400 equiv. of chloro(dimethylsulfide)gold(I); also called Au(10 equiv.)-apo-R168H/L169C-rHLFr; Au(50 equiv.)-apo-R168H/L169C-rHLFr; source: E. coli (NovaBlue, vector pMK2), purified (heat treatment, Q Sepharose, S-300); copies: 24
binding result: binds
